# Source: US20240026024A1 (SHANGHAI HUAOTA BIOPHARMACEUTICAL, published 2024)
# Changes are numbered by the printed parent chain.
# T1: human CD73 on the cell surface (human, UniProt P21589 27-549)
# T1 sequence: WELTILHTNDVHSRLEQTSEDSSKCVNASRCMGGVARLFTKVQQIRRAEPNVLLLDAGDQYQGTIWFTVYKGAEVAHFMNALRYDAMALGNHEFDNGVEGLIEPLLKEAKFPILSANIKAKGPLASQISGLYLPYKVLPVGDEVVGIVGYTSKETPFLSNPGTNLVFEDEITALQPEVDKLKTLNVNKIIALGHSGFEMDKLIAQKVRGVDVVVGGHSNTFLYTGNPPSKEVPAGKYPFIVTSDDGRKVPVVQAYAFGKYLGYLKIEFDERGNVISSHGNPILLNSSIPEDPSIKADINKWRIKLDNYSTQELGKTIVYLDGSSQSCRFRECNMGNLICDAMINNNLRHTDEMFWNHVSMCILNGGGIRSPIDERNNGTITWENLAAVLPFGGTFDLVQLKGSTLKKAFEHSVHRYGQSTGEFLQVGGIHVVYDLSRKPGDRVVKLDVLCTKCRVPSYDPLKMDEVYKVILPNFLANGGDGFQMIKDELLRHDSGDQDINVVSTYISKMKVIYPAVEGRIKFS
# T2: human CD73 protein (ACRO Biosystems, Cat No. CD3-H52H7) (human, UniProt P21589 27-547)
# T2 construct: Bought protein; also called recombinant CD73 protein; recombinant CD73
# T2 sequence: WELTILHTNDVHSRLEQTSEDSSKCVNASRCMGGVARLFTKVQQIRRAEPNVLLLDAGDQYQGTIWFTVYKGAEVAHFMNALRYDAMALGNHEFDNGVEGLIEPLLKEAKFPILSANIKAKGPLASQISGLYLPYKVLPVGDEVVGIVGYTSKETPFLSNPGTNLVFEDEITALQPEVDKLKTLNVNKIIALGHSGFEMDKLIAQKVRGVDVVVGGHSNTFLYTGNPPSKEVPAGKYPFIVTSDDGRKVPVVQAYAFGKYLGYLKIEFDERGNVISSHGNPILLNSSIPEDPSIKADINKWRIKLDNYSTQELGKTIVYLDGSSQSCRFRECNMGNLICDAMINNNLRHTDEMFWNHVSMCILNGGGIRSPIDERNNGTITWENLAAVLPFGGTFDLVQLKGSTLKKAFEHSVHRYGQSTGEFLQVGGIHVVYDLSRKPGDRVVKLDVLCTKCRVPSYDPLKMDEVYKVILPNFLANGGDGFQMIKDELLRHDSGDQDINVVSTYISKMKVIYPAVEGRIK
# T3: monkey CD73 (Novoprotein, Cat No. C121) (monkey, UniProt A0A2K5V5U7 27-549)
# T3 construct: Bought protein; also called monkey CD73 protein
# T3 sequence: T1 sequence with M199T, T350A, V466I
# B1: 900697 (antibody, V domains shown)
# VH: QVQLVESGGGLVKPGGSLRLSCAASGFTFSKYAMSWVRQAPGKGLEWVAEISSGGGYINYADSVTGRFTISRDNAKNSLYLQMNSLRAEDTAVYYCARAIYYYGSSYNYYAMDYWGQGTTVTVSS
# VL: DIQMTQSPSSLSASVGDRVTITCRASQDVGTAEAWYQQKPGKAPKLLIYWASTLQSGVPSRFSGSGSGTDFTLTISSLQPEDFATYYCQQYSSYPLTFGQGTKLEIK
# notes: Constant regions are not restated
# B2: 900698 (antibody, V domains shown)
# VH: B1 VH with V37I, T65K
# VL: B1 VL with L54R, Q55H, S56T
# notes: as for B1
# B3: 900581 (antibody, human IgG1, V domains shown)
# VH: EVQLVESGGGLVKPGGSLKLSCAASGFTFSKYAMSWVRQSPEKRLEWVAEISSGGGYINYPDTVTGRFTISRDNAKNTLYLEMSSLRSGDTAMYYCARAIYYYGSSYNYYAMDYWGQGTSVTVSS
# VL: DIVMTQSHKFMSTSVGDRVSITCKASQDVGTAEAWYQQKPGQSPKLLIYWASTRHTGVPDRFTGSGSGTDFTLTIGNVQSEDLADYFCQQYSSYPLTFGGGTKLEIK
# B4: 900695 (antibody, V domains shown)
# VH: B1 VH
# VL: B1 VL with L54R, Q55H, S56T
# notes: as for B1
# B5: 900696 (antibody, V domains shown)
# VH: B1 VH with V37I, T65K
# VL: B1 VL
# notes: as for B1
# Molecular target: T1, human CD73 on the cell surface
# Assay: cell-based or functional assay
row,Endocytosis efficiency (%),Binder
1,98.2,B1
2,96.3,B2
3,78.8,B3

# Molecular target: T2, human CD73 protein (ACRO Biosystems, …)
# Assay: SPR (Biacore T200), antibody captured on protein A chip, CD73 as analyte, 1:1 model
# Description: (§1) The temperatures of the sample chamber and flow path were set at 25° C. The protein A chips separately captured the antigen-binding proteins as ligands, which were immobilized at about 100 RU. […] Ten mM Glycine, pH 1.5, was regenerated for 60 s at a flow rate of 50 μL/min for multiple cycle kinetic detection. The binding rate constant (ka), dissociation rate constant (kd) and dissociation equilibrium rate constant (KD) were fitted using the Fit local mode of a 1:1 binding model.
Kd [nM],koff [s⁻¹],kon [M⁻¹ s⁻¹],Binder
2.04,6.03e-05,29500,B4
1.29,0.000492,380000,B1
4.23,0.000928,219000,B5
3.12,0.00106,339000,B2
1.65,0.000439,267000,B3

# Molecular target: T2, human CD73 protein (ACRO Biosystems, …)
# Assay: cell-based or functional assay
row,"EC50(µg/mL), inhibition of recombinant CD73 (CellTiter-Glo) [µg/mL]",Binder
1,0.746,B4
2,0.585,B1
3,0.751,B5
4,0.588,B2
5,0.262,B3

# Molecular target: T1, human CD73 on the cell surface
# Assay: flow cytometry on CHOK1-huCD73-3F4 cells, PE anti-human Fc
# Description: All the antigen-binding proteins were diluted to 30 μg/ml with PBS solution containing 1% BSA (1% BSA/PBS), diluted at 3-fold into 11 gradients and then added to a 96-well U-shaped plate at 20 μL/well, and negative control (1% BSA/PBS was added only) was set up simultaneously. The suspension of human CD73-expressing cells (CHOK1-huCD73-3F4, Huabo Biopharm) in the logarithmic growth phase were collected and centrifuged at 1000 rpm for 5 min, and the culture medium was discarded; then the cells were resuspended with 1% BSA/PBS to a viable cell density of 1×10⁶/mL, and then added into the 96-well U-shaped plate already added with anti-CD73 antigen-binding protein at 20 μL (2×10⁴ cells)/well for reaction at room temperature for 30 min. […] After the reaction, the cells in the 96-well U-shaped plate were resuspended with 1% BSA/PBS and centrifuged at 300 g for 3 min and the supernatant was discarded; after washing in this manner 3 times, and the cells were finally resuspended with 1% BSA/PBS at 100 μL/well, and the fluorescence intensity of the PE channel was measured with a flow cytometer (BD, #Canto II).
row,EC50 [µg/mL],Binder
1,0.594,B4
2,0.518,B1
3,0.684,B5
4,0.688,B2
5,0.347,B3

# Molecular target: T1, human CD73 on the cell surface
# Assay: cell-based or functional assay
# Remark: another data set of the same source
row,"EC50(µg/mL), inhibition of enzyme activity of CD73 on CHOK1-huCD73-3F4 cells [µg/mL]",Binder
1,1.97,B1
2,1.43,B2
3,1.85,B3

# Molecular target: T3, monkey CD73 (Novoprotein, Cat No. C121)
# Assay: SPR (Biacore T200), antibody captured on protein A chip, CD73 as analyte, 1:1 model
# Description: as §1, with “[…]” for “μL/min”
Kd [nM],koff [s⁻¹],kon [M⁻¹ s⁻¹],Binder
0.822,0.000148,180000,B4
2.13,0.000137,64100,B1
0.604,0.000214,354000,B5
1.41,0.000115,108000,B2
1.05,0.000358,349000,B3
